Data as given in the supplement of paper PMC7125110.
± gives the standard error. For part of these data: Fewer inactive variants are shown than the library holds.

B1: glmS ribozyme (parent)
chain: AUAAAAGCGCCAGAACUACAGAAAUGUAGUUGACGAGGAGGAGGUUUAUCGAAUUUUCGGCGGAUGCCUCCAAA

How the values were obtained:
Settings in all cases: with glucosamine-6-phosphate
glucosamine-6-phosphate [1] = variants of: B1; test: kcat; higher = faster cleavage; RNA array
Procedure, shortened: (§1)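 Glucosamine-6-phosphate in HEPES/KCl/Mg(OAc)2 buffer, at 40 μM to 10 mM, was flowed over barcoded ribozyme variants transcribed in situ by E. coli RNA polymerase on sequenced MiSeq chips. Tracking was through a hybridised Cy3 probe at 37 °C. kobs, kcat and KM came from exponential decay fits and weighted Michaelis–Menten fits of normalised per-tile medians.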

glucosamine-6-phosphate [2] = variants of: B1; test: self-cleavage kobs at 40 uM GlcN6P; higher = faster cleavage; RNA array
Procedure, shortened: as §1

glucosamine-6-phosphate [3] = variants of: B1; test: self-cleavage kobs at 160 uM GlcN6P; higher = faster cleavage; RNA array
Procedure, shortened: as §1

glucosamine-6-phosphate [4] = variants of: B1; test: self-cleavage kobs at 640 uM GlcN6P; higher = faster cleavage; RNA array
Procedure, shortened: as §1

glucosamine-6-phosphate [5] = variants of: B1; test: self-cleavage kobs at 2500 uM GlcN6P; higher = faster cleavage; RNA array
Procedure, shortened: as §1

glucosamine-6-phosphate [6] = variants of: B1; test: self-cleavage kobs at 10000 uM GlcN6P; higher = faster cleavage; RNA array
Procedure, shortened: as §1

glucosamine-6-phosphate [7] = variants of: B1; test: KM; higher = weaker cofactor use; RNA array
Procedure, shortened: as §1

| Variant | kcat (glucosamine-6-phosphate [1]) [s⁻¹] | self-cleavage kobs at 40 uM GlcN6P (glucosamine-6-phosphate [2]) [s⁻¹] | self-cleavage kobs at 160 uM GlcN6P (glucosamine-6-phosphate [3]) [s⁻¹] | self-cleavage kobs at 640 uM GlcN6P (glucosamine-6-phosphate [4]) [s⁻¹] | self-cleavage kobs at 2500 uM GlcN6P (glucosamine-6-phosphate [5]) [s⁻¹] | self-cleavage kobs at 10000 uM GlcN6P (glucosamine-6-phosphate [6]) [s⁻¹] | KM (glucosamine-6-phosphate [7]) [µM] |
| --- | --- | --- | --- | --- | --- | --- | --- |
| G38U C70A | 1.31e-05 ± 3.3e-06 |  |  |  |  |  |  |
| A39G A53G C67G | 0.00302 ± 0.001 | 0.000234 ± 7.2e-05 | 0.000647 ± 0.00024 | 0.00135 ± 0.00029 | 0.00536 ± 0.0012 | 0.00257 ± 0.00072 |  |
| G37A | 0.00564 ± 0.001 | 7.38e-05 ± 1.4e-06 | 0.000198 ± 7.5e-06 | 0.000777 ± 1.7e-05 | 0.00255 ± 7.6e-05 | 0.00419 ± 8.2e-05 | 3540 ± 830 |
| G37U | < 1e-05 |  |  |  | < 1e-05 | < 1e-05 |  |
| G37C | 5.32e-05 ± 1.7e-06 |  |  | 1.88e-05 ± 1.5e-06 | 3.22e-05 ± 1.5e-06 | 4.71e-05 ± 8.5e-07 | 1380 ± 210 |
| G38C C50U | < 1e-05 |  | < 1e-05 | < 1e-05 |  | < 1e-05 |  |
| G38C C50G | 1.28e-05 ± 1.9e-06 |  |  |  |  |  |  |
| A39C U57A | 2.13e-05 ± 6e-06 | < 1e-05 |  |  | 2.6e-05 ± 1.3e-05 |  |  |
| A39G C70G | 0.000172 ± 3.8e-05 | 0.000112 ± 1.6e-05 | 0.000143 ± 2.3e-05 | 0.000314 ± 4.7e-05 | 0.000245 ± 3.2e-05 | 0.000132 ± 1.8e-05 |  |
| A39G C70A | 0.000304 ± 4.8e-05 | 6.17e-05 ± 1.2e-05 | 0.000136 ± 3.1e-05 | 0.000306 ± 4.3e-05 | 0.000172 ± 7.3e-05 | 0.000303 ± 5e-05 | 158 ± 60 |
| G40C C70U | 0.000498 ± 0.00011 | 4.61e-05 ± 9e-06 | 0.000155 ± 3.2e-05 | 0.0002 ± 3.4e-05 | 0.000428 ± 9.7e-05 | 0.000555 ± 6.8e-05 | 512 ± 240 |
| G40A A53C | 0.00179 ± 0.0007 |  | 0.000183 ± 5.8e-05 | 0.000386 ± 0.00011 | 0.000919 ± 0.0002 | 0.00217 ± 0.0008 |  |
| A36U C61A | < 1e-05 | < 1e-05 |  |  |  | < 1e-05 |  |
| A39U C70G | 0.000797 ± 0.00021 | 4.48e-05 ± 9.1e-06 | 6.66e-05 ± 2e-05 | 0.000201 ± 3.6e-05 | 0.000522 ± 8.8e-05 | 0.000713 ± 0.0001 | 1500 ± 720 |
| A39U C70A | 0.000394 ± 9.4e-05 | 5.15e-05 ± 9.3e-06 | 7.96e-05 ± 1.2e-05 | 0.000187 ± 2.3e-05 | 0.000403 ± 6.9e-05 | 0.000382 ± 5.4e-05 | 558 ± 250 |
